Experimental data taken from the DeepSol protein solubility set.

Assay: soluble on expression in E. coli; label from the status in PepcDB or PDB records

| Sequence | soluble on expression in E. coli |
| --- | --- |
| MTKHARFSLLPSFIIFSAALLAGCNDQGDTQAHAGEPQVTVHVVETAPLAVTTELPGRTSAFRIAEVRPQVSGIVLKRNFTEGSDVEAGQSLYQIDPATYQADYDSAKGELAKSEAAAAIAHLTVKRYVPLVGTKYISQQEYDQAIADARQADAAVVAAKAAVESARINLAYTKVTSPISGRIGKSNVTEGALVTNGQSTELATVQQLDPIYVDVTQSSNDFMRLKQSVEQGNLHKDSASSTVQLVMENGQVYPIKGTLQFSDVTVDESTGSITLRAVFPNPQHSLLPGMFVRARIDEGVQPNAILVPQQGVTRTPRGDAMVMVVNDKSQVEARNVVAAQAIGDKWLISEGLKPGDKVIVSGLQKARPGVQVKATTDAPAAKTAQ | not soluble |
| MGDYENVLMVKPKVFVYRIPPIGTSGHKAADWNLDSPAWTGRMRLVAIGKRLEMRLEDGETCDLYAKCPIDAHPGNAIEAVSDSSRYFVIRLQNDNGQQAFVGCGFQERGDAFDFNVTLQDHFRYIERSAELEKQDLSAGPSLDLAFKEGQTISINIGKKDKSAVSRPRPAPGASTGGLVPLLPPPPGAGSMIRNSRPSTTTTTASSSLSSAFAAPPPAPSSSTSTTATSGNLLDF | not soluble |
| QGAVRKATAAEIAALPRQKVELVDPPFVHAHSQVAEGGPKVVEFTMVIEEKKIVIDDAGTEVHAMAFNGTVPGPLMVVHQDDYLELTLINPETNTLMHNIDFHAATGALGGGGLTEINPGEKTILRFKATKPGVFVYHCAPPGMVPWHVVSGENGAIMVLPREGLHDGKGKALTYDKIYYVGEQDFYVPRDENGKYKKYEAPGDAYEDTVKVMRTLTPTHVVFNGAVGALTGDKAMTAAVGEKVLIVHSQANRDTRPHLIGGHGDYVWATGKFNTPPDVDQETWFIPGGAAGAAFYTFQQPGIYAYVNHNLIEAFELGAAAHFKVTGEWNDDLMTSVLAPSGT | soluble |
| MTEAPKIEKSFNEISDMEQIFVEHHSFGIVSLSSISESLKRLELSADLNIQELLAIKKVLQSSSDMIHFYSDLDNVSFQSLDRLFENLEQFPNLQGSFQAINDGGFLEHFASPELERIRRQLTNSERRVRQILQDMLKEKAELLSENLIASRSGRSVLPVKNTYRNRISGVVHDISSSGSTVYIEPRAVVTLNEEITQLRADERHEESRILHAFSDLLRPHVATIRNNAWILGHLDFVRAKYLFMSDNKATIPEISNDSTLALINVRHPLLSNPVANDLHFDQDLTAIVITGPNTGGKTIMLKTLGLAQLMGQSGLPVLADKGSKIAVFNNIFADIGDEQSIEQSLSTFSSHMTHIVSILNEADHNSLVLFDELGAGTDPQEGASLAMAILEHLRLSNIKTMATTHYPELKAYGIETNFVENASMEFDAETLSPTYRFMQGVPGRSNAFEIASRLGLAPFIVKQAKQMTDSDSDVNRIIEQLEAQTLETRRRLDHIKEVEQENLKFNRAVKKLYNEFSHERDKELEKIYQEAQEIVDMALNESDTILKKLNDKSQLKPHEIIDAKAQIKKLAPQVDLSKNKVLNKAKKIKAARAPRIGDDIIVTSYGQRGTLTSQLKDGRWEAQVGIIKMTLTQDEFTLVRVQEEQKVKSKQINVVKKADSSGPRARLDLRGKRYEEAMQELDNFIDQALLNNMGQVDIIHGIGTGVIREGVTKYLRRNKHVKHFAYAPQNAGGSGATIVTLGLEHHHHHH | not soluble |
| MNSGRPETMENLPALYTIFQGEVAMVTDYGAFIKIPGCRKQGLVHRTHMSSCRVDKPSEIVDVGDKVWVKLIGREMKNDRIKVSLSMKVVNQGTGKDLDPNNVIIE | soluble |
| GPGSMPSPLVLTRAAPARGLNVKMFDRKVKGLQRSFVSSPACDLHKLCAQQMLDRRTFVKRDTPVVLEVGAHTGWYLRHMIERKEFHGLKQYIQTDISEDRLNRNYEEIKNIIPPEVEFVQICCDEEQPSPFGIPDKSVDMVVSCLSMHWVNDLETSMVNVRKVLKRDGFFLNAMFGGNTLYELRGCFSMAQTETLGGVSPHVSPMIDGAGLSTLVLQAGFNIPTIDLDRHLLLYETPFHLMEHLAVMGESACHYMRQPMKRDVLLCACAIYDTMYKQNGLFPATFEVFHTIAWSPSPTQAKPLARGSGQIPLSSWNSKSRKQLQSVLDEYALNPNDEVLQNKAEDIFKKLREESAELMAKKGLDSRGFERDRDEEARRLDEKPVPPFQ | not soluble |
| AHHHHHHGSKIARVNGLWITIPNVRYSFFNTPYIGHRIGTAVDVYFEDRALFPFEEGKLIEVRKIRTPRYIPVDHDYLMVFKLGEFCLKVLHVDPSVKIGEKVFLGDEIGKLRLSGFFSPWSDKHAHFEVRDCNDRYRARGAFPLFPEVKPLVPIVKGNTFEVVERKGHYLWLKPLETKGKGMTPLGNIEGGLPHYRYGAIFSGREGKLFGIDVKAQEILENGVGIFKPNFEVLANGVKVRGIGVYCNEERVKLIGGNFEVGDIIKIEIKARLGT | not soluble |
| MGSDKIHHHHHHMTRYKLSAEVSFSKPSEIMGRLYILPYRDNAQKVLHFNIDHPSFCKVSINQDRFRNEHLDFKCNPSDDFSIIISYEVEVNSFSKSENEEEVFLSSSKYVNVDKFKMINVRYFSFDDLIDEVISMVRDSIRYDKNNKSVKSAFGSLIMGSGVCVNYSHVAIGILRALGIPARYVIGLIPFSTKEAHAWIEVKIGDVWFPVDPTNGIKGMQYLKWAIGRDDNDVRSKIWYSKPVSFDFSFDWNFR | not soluble |
| MSKIKIAIIGNGMVGHRFIEDLLDKADKDQFDITVFCEEPRIAYDRVHLSSYFSHHTAEELSLVREGFYEKQGVKVLVGERAITINRAEKVIHSNSGRSLYYDKLVMATGSYPWIPPIKGSEGQDCFVYRTIEDLNAIEACTRRSKRGAVIGGGLLGLEAAGALKSLGVETHVIEFAPVLMAEQLDPMGGDQLRQKIERMGVRVHTGKNTQEIVHSGQNSRKTMLFADGTQLEVDFIVFSTGIRPQDKLANQCGLATARRGGIAINDYCQTSDPDVYAIGECASWQERTFGLVAPGYKMAQVAADHLLGRENAFLGADMSAKLKLLGVDVGGIGDAHGRTEGARSYVYLDESKEIYKRLVVSADNKTLLGAVLVGDTTDYGNLLQLALNNITLPENPDSLILPAHAGNKPTIGVDSLPDSAQICSCFDVTKGDIIRAIGQGCQTVAALKSATKAGTGCGGCIPLVTQVLNAELSKQGIEVNNHLCEHFAYSRQELYHLIRVEGIKTFTELREKYGKGYGCEVCKPTVGSLLASCWNEYVLEPQHTPLQDTNDNFLGNIQKDGTYSIIPRSPGGEITPDGLLVVGQIAKEYNLYTKLTGSQRIGMFGAQKDDLPAIWARLIDAGFETGHAYAKALRMAKTCVGSTWCRFGVGDSVGFGVALEHRYKGIRAPHKIKFGISGCTRECAEAQGKDVGIIATENGWNLYVCGNGGMKPRHADLLAADLDEETLMRYLDRFMMFYIRTADKLQRTSVWLESLEGGIRYLQLVILEDKLGINDQLEAEIARLRDKVACEWKATVENPAAQVRFAHFINSSLRDPNVQVVREREQHRPARPDERIPVRVLELEDNA | not soluble |
| GPGSMTRRNAMSDNTTSTSSVTPERYPFCIVWTDIPLVSWLFPFVGHVGICDSTGRIFDFEGSYCIGVDHMLFGNPVKYWDISAMYVPSSRFPPGGLLSGDVEERRRRETEEYDRALSGVTTRFRKTQTYNFFTNNCHSYVASVLEEMTNGPRRPWNMFWIAWGLAIHGRSLLKSPSSLPRYRRPLCDRRCTLGLTRSK | not soluble |
| MKYIDCAVIGAGPAGLNASLVLGRARKQIALFDNNTNRNRVTQNSHGFITRDGIKPEEFKEIGLNEVMKYPSVHYYEKTVVMITKQSTGLFEIVTKDHTKYLAERVLLATGMQEEFPSIPNVREYYGKSLFSCPYCDGWELKDQPLIIISENEDHTLHMTKLVYNWSTDLVIATNGNELSQTIMDELSNKNIPVITESIRTLQGEGGYLKKVEFHSGLRIERAGGFIVPTFFRPNQFIEQLGCELQSNGTFVIDDFGRTSEKNIYLAGETTTQGPSSLIIAASQGNKAAIAINSDITDERF | soluble |
| MGSDKIHHHHHHMHFVITGSLGHIGKPLAIQLSKEGHAVTVVSSNTERIKEIESIGAKAAIGSVEDPGFLTETFRGADAVFTMVPPNMNAADWKAWIAGIGKNYVAAIKESGVKHVVNLSSIGAHMVDKCGPVSGLSQVELAMDEMKGVNVHHLRAGYFYTNFLNSIGQIKNQGIITGNYMPDLKMVLVHPADIADIAARALKDESYLGRGFSYIASDEKTPAEIVTILGKATGRMDLKWVERTDKEEYDDLIAIGLPEEIAKNYTEMGAALRSGDMNADYFRNRPVMAGWRTFDSFMPEFIATYNA | not soluble |
| HWPPLGIVRDLWTESGIGPERVAVMERVAGPKCCLLGRQNDRPSGAAFVGLAGPFAMLHALEVTPALRRLGSAQAMIRRGACWAEAAGAHWFSLVVTTANAPARALYEALGMEEVGHYHYRLK | not soluble |
| MFRLGTTPRATTYDPDARIGEVASRFGLPTRVLIEIVRTESFQRSLARVTSGKPVVLDLRELDSDLASWIATHARLVEPALRELVRTVAPDVEPRVRFRGLPHRFRRVERIRPMDGALISIEGVVREVRGAERLEHAIVDTGSELVAVRLHGHRLGPGLRVEILGIVRSATLDALEVHKKDPIPEVHPDPAELEEFRELADKDPLTTFARAIAPLPGAEEVGKMLALQLFSCVGKNSERLHVLLAGYPVVCSEILHHVLDHLAPRGVYVDLRRTELTDLTAVLKEDRGWALRAGAAVLADGGILAVDHLEGAPEPHRWALMEAMDKGTVTVDGIALNARCAVLAAINPGEQWPSDPPIARIDLDQDFLSHFDLIAFLGVDPRPGEPEEQDTEVPSYTLLRRYLLYAIREHPAPELTEEARKRLEHWYETRREEVEERLGMGLPTLPVTRRQLESVERLAKAHARMRLSDDVEPEDVDIAAELVDWYLETAMQIPGGDEIRISSLKP | soluble |
| MGSRASTLLRDEELEEIKKETGFSHSQITRLYSRFTSLDKGENGTLSREDFQRIPELAINPLGDRIINAFFSEGEDQVNFRGFMRTLAHFRPIEDNEKSKDVNGPEPLNSRSNKLHFAFRLYDLDKDDKISRDELLQVLRMMVGVNISDEQLGSIADRTIQEADQDGDSAISFTEFVKVLEKVDVEQKMSIRFLHKLAAALEHHHHHH | soluble |
| MGSDKIHHHHHHMCEISVVMPVYNAEMHIKDAIESVLEQSFVDFEFILIDDGSTDHTSSIIQSYNDKRVRLIQNSHNFIESLNLGIENSLGKYMARMDGDDIMHIDRLKIQYAIMQEYPDVTVCGTWMNSIGTYSQTNGLLSTLSGWVEQPLLKFTKGNFLFHPTTMIRMDFLKKNALKYENYPYAEDFKFWVEIAKSGGRFYIDSQPLLYYRISDSQVSSQKSSEQRATTESIINEVLEYLMELNKNEYPELAAAYGDLCKLYEKQLLTKCEVLTLFQTLFSKNEKKLNL | not soluble |
| MKKWFPALLFSLCVSGESSAWNNIVFYSLGDVNSYQGGNVVITQRPQFITSWRPGIATVTWNQCNGPEFADGFWAYYREYIAWVVFPKKVMTQNGYPLFIEVHNKGSWSEENTGDNDSYFFLKGYKWDERAFDAGNLCQKPGEITRLTEKFDDIIFKVALPADLPLGDYSVKIPYTSGMQRHFASYLGARFKIPYNVAKTLPRENEMLFLFKNIGGCRPSAQSLEIKHGDLSINSANNHYAAQTLSVSCDVPANIRFMLLRNTTPTYSHGKKFSVGLGHGWDSIVSVNGVDTGETTMRWYKAGTQNLTIGSRLYGESSKIQPGVLSGSATLLMILP | soluble |
| MGSDKIHHHHHHMIEKTNPSHILLPEDSIKKYILPKYNLQDAEILQIKFKDTEKQRAVYKLTLGSKKYCLKKVYYDKGELLFVYSTTEWFFRHGINVTRILPTLDNSRFVIYSGMIFILMPWIDGLKCNYDKKEDLFKASKNLAHMHKCSQKFFSIQGSSIRYGFEHIYLSNKKHFEQILSFFNKAYEINDSFSKIALNNCDLCIKLSKIALNASSRIESRNFKKSLCHLDYVNKNIIFDKNNDIWVIDFDKCKFDYSVHDISYFMRRIMKRDNTRWNSELLINMLNVYEQINPLNLDEYLYILSYLVFPQKFWKICKDYYNNLSRCNKAAFINLIKSTTKYSELHLKFAYNFSNYIEGKFNVSLNL | not soluble |
